B1: Retinoic acid receptor alpha (RARα) (natural protein, mouse (endogenous in testis), UniProt P11416 1-462, looked up)
chain: MASNSSSCPTPGGGHLNGYPVPPYAFFFPPMLGGLSPPGALTSLQHQLPVSGYSTPSPATIETQSSSSEEIVPSPPSPPPLPRIYKPCFVCQDKSSGYHYGVSACEGCKGFFRRSIQKNMVYTCHRDKNCIINKVTRNRCQYCRLQKCFDVGMSKESVRNDRNKKKKEAPKPECSESYTLTPEVGELIEKVRKAHQETFPALCQLGKYTTNNSSEQRVSLDIDLWDKFSELSTKCIIKTVEFAKQLPGFTTLTIADQITLLKAACLDILILRICTRYTPEQDTMTFSDGLTLNRTQMHNAGFGPLTDLVFAFANQLLPLEMDDAETGLLSAICLICGDRQDLEQPDKVDMLQEPLLEALKVYVRKRRPSRPHMFPKMLMKITDLRSISAKGAERVITLKMEIPGSMPPLIQEMLENSEGLDTLSGQSGGGTRDGGGLAPPPGSCSPSLSPSSHRSSPATQSP
notes: Retinoic acid receptor alpha, mouse, endogenous in testis; band of 52 kDa; Endogenous protein of C57BL/6 mouse testis; source: endogenous, mouse P7 testis protein extract
B2: PRAMEX1 (Prame like, X-linked 1) (natural protein, mouse (endogenous in testis), UniProt F7ADI6 1-462, looked up)
chain: MDERDPSSLLDLAIQSLLSNELVAIHSLGEIPRELFVPLFSAAFTGGYRKILTSMVKIWPFTCLHIGTLSVQEPQRELLKAMVESLQFLPAQDCSSGGPKLRILDVRQGVDCKTTCPDFGARSPTCFHGCTHSVHSILKLESQYSIVDLKPESQSAIQPMELLVDLSLDGTLREREFFALLLNKVQQSSGSLHLCCRDLQIDRFSYAKNALKFLDLTCIQNLTVDQASLSEVTTLLARMIYLDSLSLSKITYRSLHGKVFRVFLNYLGRMNCLKELNLSSFSLTDHLDSLLRALPPNLDFLYLPFCEISYRDLKFLSQSAQATHLKLLNLSNNPMYWDDCGPFQTLLQKLSDTLQHLAINHCHLTDAILSAILPALSKCSHLRVISFVSNPISMPMLLKILHYLTPLMELKYVIYPIPIHCYEQWQFHGRLDRQKLTDVQAQLKAMLQAAKRSDMNWITYSQ
notes: PRAMEX1 (Prame like, X-linked 1), mouse, endogenous in testis; band of about 56 kDa; Endogenous protein of C57BL/6 mouse testis; no recombinant construct; source: endogenous, mouse P7 testis protein extract

How the values were obtained:
[1] = biological target: B2; assay: co-IP; anti-PRAMEX1 or anti-RARα antibody immobilised on protein A/G magnetic beads (Pierce Crosslink Magnetic IP/co-IP Kit); P7 testis proteins of WT, Pramex1 sKO and Pramel1 sKO mice, overnight at 4 °C; Western blot, band intensity relative to input (set as 1), n = 3; conditions: partners not purified
[2] = biological target: B1; assay: as above; conditions: partners not purified

band intensity in the PRAMEX1 precipitation relative to input, Pramel1 sKO testis [1] [fold]	band intensity in the PRAMEX1 precipitation relative to input, WT testis [1] [fold]	band intensity in the RARα co-IP relative to input, Pramel1 sKO testis [2] [fold]	band intensity in the RARα co-IP relative to input, WT testis [2] [fold]	Binder
2.48	1.5			B1
		3.32	1.3	B2
